The target in data set [1] is T1, Monbr Sox-like HMG (Monosiga brevicollis, UniProt A9VCR9 107-175).
T1 sequence: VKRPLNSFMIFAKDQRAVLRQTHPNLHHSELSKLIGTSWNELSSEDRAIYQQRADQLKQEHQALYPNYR
The experiment in a line: EMSA. A general note: Mobility shift assays separate free from complexed probe on a gel.

The target of data set [2] is mOct4 POU;mSox2 HMG (mouse;mouse, UniProt P20263;P48432 131-282;41-119, |). Briefly: EMSA.
Chain of mOct4 POU;mSox2 HMG (P20263 131-282, chain 1 of 2): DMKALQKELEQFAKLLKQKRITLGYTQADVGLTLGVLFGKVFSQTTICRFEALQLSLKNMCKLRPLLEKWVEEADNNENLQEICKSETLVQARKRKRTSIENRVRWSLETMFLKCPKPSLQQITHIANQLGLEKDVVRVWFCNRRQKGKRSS
Chain of mOct4 POU;mSox2 HMG (P48432 41-119, chain 2 of 2): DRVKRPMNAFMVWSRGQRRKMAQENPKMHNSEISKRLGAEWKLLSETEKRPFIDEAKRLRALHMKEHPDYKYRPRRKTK

B1: Sox consensus (dsDNA)
DNA 1: GGCGGCGGCATTGTCCGGCGCGCGG
DNA 2: CCGCGCGCCGGACAATGCCGCCGCC
Regarding B1, the binding result in data set [1] is listed as “no binding”.

B2: SoxOct canonical (dsDNA)
DNA 1: GCGGCATTGTCATGCAAATCGGCGG
DNA 2: CCGCCGATTTGCATGACAATGCCGC
Regarding B2, the binding result in data set [2] is “binds”.

For the origin of these results see article PMC11564870.
